# Values of other authors, collected in patent US9012177B2, “Methods and compositions for improving sugar transport, mixed sugar fermentation, and production of biofuels” (The Regents of the University of California, priority 2009, dated 2015).
# Where two headings read alike, the source gives them in different places.
# B1: psXDH (protein, UniProt P22144 1-363, looked up)
# D-xylulose reductase: MTANPSLVLNKIDDISFETYDAPEISEPTDVLVQVKKTGICGSDIHFYAHGRIGNFVLTKPMVLGHESAGTVVQVGKGVTSLKVGDNVAIEPGIPSRFSDEYKSGHYNLCPHMAFAATPNSKEGEPNPPGTLCKYFKSPEDFLVKLPDHVSLELGALVEPLSVGVHASKLGSVAFGDYVAVFGAGPVGLLAAAVAKTFGAKGVIVVDIFDNKLKMAKDIGAATHTFNSKTGGSEELIKAFGGNVPNVVLECTGAEPCIKLGVDAIAPGGRFVQVGNAAGPVSFPITVFAMKELTLFGSFRYGFNDYKTAVGIFDTNYQNGRENAPIDFEQLITHRYKFKDAIEAYDLVRAGKGAVKCLIDGPE
# Settings: saturated xylitol, Watanabe et al. (2005b)
molecule,measurement,setting,value
B1,Km,NAD+,381 µM
same,kcat,NAD+,17.5 s⁻¹
same,kcat,NADP+,1.83 s⁻¹
